T1: Fy-1 (Tbck) (human, UniProt Q8TEA7 1-893)
T1 sequence (looked up): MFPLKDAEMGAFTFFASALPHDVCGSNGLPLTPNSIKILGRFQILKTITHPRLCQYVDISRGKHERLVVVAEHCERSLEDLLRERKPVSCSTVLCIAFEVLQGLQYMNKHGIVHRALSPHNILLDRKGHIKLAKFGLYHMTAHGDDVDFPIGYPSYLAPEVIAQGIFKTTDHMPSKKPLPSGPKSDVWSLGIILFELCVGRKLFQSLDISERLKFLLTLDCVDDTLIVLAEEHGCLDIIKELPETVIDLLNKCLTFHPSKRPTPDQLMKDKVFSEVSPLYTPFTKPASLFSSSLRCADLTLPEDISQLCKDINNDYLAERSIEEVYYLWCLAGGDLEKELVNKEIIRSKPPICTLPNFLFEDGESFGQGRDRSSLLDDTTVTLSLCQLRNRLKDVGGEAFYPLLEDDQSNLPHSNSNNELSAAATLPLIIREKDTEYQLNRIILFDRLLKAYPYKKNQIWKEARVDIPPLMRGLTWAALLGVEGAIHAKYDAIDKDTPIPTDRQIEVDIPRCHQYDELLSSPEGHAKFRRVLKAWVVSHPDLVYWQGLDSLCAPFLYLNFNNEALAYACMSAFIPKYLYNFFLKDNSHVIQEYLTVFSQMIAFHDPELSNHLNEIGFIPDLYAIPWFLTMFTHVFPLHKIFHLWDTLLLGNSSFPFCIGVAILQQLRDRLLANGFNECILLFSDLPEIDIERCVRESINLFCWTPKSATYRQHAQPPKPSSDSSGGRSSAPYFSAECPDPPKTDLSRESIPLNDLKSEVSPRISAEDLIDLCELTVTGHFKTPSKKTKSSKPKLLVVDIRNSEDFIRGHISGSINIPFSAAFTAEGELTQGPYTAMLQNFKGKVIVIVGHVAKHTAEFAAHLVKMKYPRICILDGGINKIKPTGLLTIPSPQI

B1: Fy-5 (Gatd1) (natural protein, human, UniProt Q8NB37 1-220, looked up)
chain: MASERLPNRPACLLVASGAAEGVSAQSFLHCFTMASTAFNLQVATPGGKAMEFVDVTESNARWVQDFRLKAYASPAKLESIDGARYHALLIPSCPGALTDLASSGSLARILQHFHSESKPICAVGHGVAALCCATNEDRSWVFDSYSLTGPSVCELVRAPGFARLPLVVEDFVKDSGACFSASEPDAVHVVLDRHLVTGQNASSTVPAVQNLLFLCGSRK
B2: Fy-4 (Cryzl1) (natural protein, human, UniProt O95825 1-349, looked up)
chain: MKGLYFQQSSTDEEITFVFQEKEDLPVTEDNFVKLQVKACALSQINTKLLAEMKMKKDLFPVGREIAGIVLDVGSKVSFFQPDDEVVGILPLDSEDPGLCEVVRVHEHYLVHKPEKVTWTEAAGSIRDGVRAYTALHYLSHLSPGKSVLIMDGASAFGTIAIQLAHHRGAKVISTACSLEDKQCLERFRPPIARVIDVSNGKVHVAESCLEETGGLGVDIVLDAGVRLYSKDDEPAVKLQLLPHKHDIITLLGVGGHWVTTEENLQLDPPDSHCLFLKGATLAFLNDEVWNLSNVQQGKYLCILKDVMEKLSTGVFRPQLDEPIPLYEAKVSMEAVQKNQGRKKQVVQF
B3: Rab5 (Rab5a), GTPγS loaded (natural protein, human, UniProt P20339 1-215, looked up)
chain: MASRGATRPNGPNTGNKICQFKLVLLGESAVGKSSLVLRFVKGQFHEFQESTIGAAFLTQTVCLDDTTVKFEIWDTAGQERYHSLAPMYYRGAQAAIVVYDITNEESFARAKNWVKELQRQASPNIVIALSGNKADLANKRAVDFQEAQSYADDNSLLFMETSAKTSMNVNEIFMAIAKKLPKNEPQNPGANSARGRGVDLTEPTQPTRNQCCSN
B4: Fy-3 (C12orf4) (natural protein, human, UniProt Q9NQ89 1-552, looked up)
chain: MKKNRERFCNREREFVYKFKVGSQCLELRVPLKFPVQENASHLHGRLMLLHSLPCFIEKDLKEALTQFIEEESLSDYDRDAEASLAAVKSGEVDLHQLASTWAKAYAETTLEHARPEEPSWDEDFADVYHDLIHSPASETLLNLEHNYFVSISELIGERDVELKKLRERQGIEMEKVMQELGKSLTDQDVNSLAAQHFESQQDLENKWSNELKQSTAIQKQEYQEWVIKLHQDLKNPNNSSLSEEIKVQPSQFRESVEAIGRIYEEQRKLEESFTIHLGAQLKTMHNLRLLRADMLDFCKHKRNHRSGVKLHRLQTALSLYSTSLCGLVLLVDNRINSYSGIKRDFATVCQECTDFHFPRIEEQLEVVQQVVLYARTQRRSKLKESLDSGNQNGGNDDKTKNAERNYLNVLPGEFYITRHSNLSEIHVAFHLCVDDHVKSGNITARDPAIMGLRNILKVCCTHDITTISIPLLLVHDMSEEMTIPWCLRRAELVFKCVKGFMMEMASWDGGISRTVQFLVPQSISEEMFYQLSNMLPQIFRVSSTLTLTSKH
B5: Fy-2 (Ppp1r21) (natural protein, human, UniProt Q6ZMI0 1-780, looked up)
chain: MASAELQGKYQKLAQEYSKLRAQNQVLKKGVVDEQANSAALKEQLKMKDQSLRKLQQEMDSLTFRNLQLAKRVELLQDELALSEPRGKKNKKSGESSSQLSQEQKSVFDEDLQKKIEENERLHIQFFEADEQHKHVEAELRSRLATLETEAAQHQAVVDGLTRKYMETIEKLQNDKAKLEVKSQTLEKEAKECRLRTEECQLQLKTLHEDLSGRLEESLSIINEKVPFNDTKYSQYNALNVPLHNRRHQLKMRDIAGQALAFVQDLVTALLNFHTYTEQRIQIFPVDSAIDTISPLNQKFSQYLHENASYVRPLEEGMLHLFESITEDTVTVLETTVKLKTFSEHLTSYICFLRKILPYQLKSLEEECESSLCTSALRARNLELSQDMKKMTAVFEKLQTYIALLALPSTEPDGLLRTNYSSVLTNVGAALHGFHDVMKDISKHYSQKAAIEHELPTATQKLITTNDCILSSVVALTNGAGKIASFFSNNLDYFIASLSYGPKAASGFISPLSAECMLQYKKKAAAYMKSLRKPLLESVPYEEALANRRILLSSTESREGLAQQVQQSLEKISKLEQEKEHWMLEAQLAKIKLEKENQRIADKLKNTGSAQLVGLAQENAAVSNTAGQDEATAKAVLEPIQSTSLIGTLTRTSDSEVPDVESREDLIKNHYMARIVELTSQLQLADSKSVHFYAECRALSKRLALAEKSKEALTEEMKLASQNISRLQDELTTTKRSYEDQLSMMSDHLCSMNETLSKQREEIDTLKMSSKGNSKKNKSR

Legend:
[1] = target: the molecule itself; assay: cryo-EM structure
[2] = target: B5; assay: cryo-EM structure
[3] = target: B5; assay: HDX-MS
[4] = target: T1, Fy-1 (Tbck); assay: HDX-MS

binding result [2]	binding result [3]	binding result [4]	Binder	stoichiometry N [1]
			B1	2
binds			B2	2
	binds		B3	
	binds		B4	
		binds	B5	2
